The data set can be described thus: label from the status in PepcDB records.

This is an account of results in a protein production outcome set (Wang et al. 2014).
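Note: failed if final PepcDB status was selected cloned or expressed and not failed if soluble or beyond.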

For “MDKALTNHVIILSFDCLSALDFPILQKLPHFQSLIKKGTVVEKVEPIYPSVTYPSHSTIVTGNYPNKHGVVSNTLLQPGRESPDWHWYRKSIKGTTLYDEARKANLTTAALLWPVTGRANIDYNLPEIFPNRPWQNQVLVSLFSGSPLYQLDLNRRFGHIRNGLSQPELDDFVLASAVHTIQTKKPNIMFVHFTDLDTQRHYHGFESNETIAAIQRHDERLGKIIQALKESDLYEESTIIALGDHSALSENKSIQLNVLFHQRGLISLNKKRKLVDWKAYCQSCDGSAYVYVKDKNDTDTIREVQLLLEELLQNKQNGIEFILHDEAAKDCGADGNCLFMLEAREGYYFTENYTGDFIKEITEKDVTLSKKYTFGTHGYSPTKPNYETIFIAAGKGIKSGVTVPYMRLIDEGPTIARLLGLHLGETDGAIVEDLLQLLEHHHHHH”, the protein production result was “not failed”.

With “MDKESTKWIRFLGGKNLLYTLTILCLIAVTIFLFNTVSFIFKPIFVIFSAVLGPVLFGIILFYLLNPMVKRLEKKIPRVWAIAILYVLIIALLVLAGLQLFPIIQDQTEELIKQFPSFWKSTLQTVQEFMAKTPFAKDLESANESINQLWGKLANSFKDFAGDYLQTGAQGLGSVFSAVSSTFLTLFTGPIIAFFLLKDKEKFYRFVKGIIPPAFRPDFDEYSQIANIQIGDYLKGQVIASLVLGIMYWPAFLLIGLQFGSILALAAGILCIIPYIGPFIAFIPGLIIAFQDSTFMVVKFVIVWFAIQLIHGDFVIPRVMGDKLKVHPITILLVLLVMGELFGLMGVIFGIPMYCLVKVTVIYLFRKFKQRYNRFYGDNGEYEHTNFTKDQYLK”, the protein production result is on record as “failed”.

In the case of “MDKKYDITAVLNEDSSMTAISDQFQITLDARPKHTAKGFGPLAALLSGLAACELATANLMAPAKMITINKLLMNVTGSRSTNPTDGYFGLREINLHWEIHSPNSETEIKEFIDFVSKRCPAHNTLQGVSQLKINVNVTLVH”, the protein production entry was “not failed”.

With “MDKNILAIIFVAVGTYLIRYIPIHLHSKIKNIDEKVKEINEILIYSSTSVISALFITSFIKFPIIFSNVLISTISLIFAIVSYKKWNNLGISILISVVIYYLASKFLISI”, the protein production entry is on record as “failed”.

Turning to “MDKVSIIIPVYNVQSFLNECIESVLAQTYSNLEIILVNDGSTDNSGDICDYYSEIDGRIFVFHKNNGGLSDARNYGISRATGDYIYLLDSDDYLYKEDAIERMVEFSEKYNSEIVLGCYVEKREQHIINIVLEDEMIETISPVQAIQNIYNYDAYRAIFTVAHNKLYKRELFSTLCYPVGKLHEDEFLTYKLYLKAKNIIFFRYNTYAYRIRENSIMTGSYNIKRLHAVEALKERIYLLEKYPDLVFQSERALIKTMEVNLIELYKNNFYKEFHTLKTEYKKTIFDFIKKQRMLLKIKYYLKYCVVHFKILNCKRKKKINKLEHHHHHH”, the protein production entry is “not failed”.

As to “MDKYLRLLSQGDRLGLTLIRLSIAIVFIWIGLLKFVPYEADSITPFVANSPFMSFFYEHPEEYRQHLTHEGELKPEERAWQTANNTYAFSDGLGVVELIIAALVLANPVSRWLGLAGGVLAFLTPFVTLSFLITTPEVWVMPLGDAHYGFPYLSGAGRLVLKDTLMLAGAVMIMADSARSLLLQRQ”, the protein production result is on record as “failed”.

Take “MDKYRLLLLGGGRGLFDIDEDFMHWIDEFIEEHSNSIEITIVTGKNKKLYDNLTHKKPLKNIKVLGFVNDMYNLIRECDLMLTKPGGATIFEAIQSQTPVLVKMPKVGQEIENAKFIIDKGLGMIYSDDLDLKNIFYKLVSNEFDSIINFMKKNLKEFKTVIHPEKIADYISELIDNHLEHHHHHH”: the protein production entry is listed as “failed”.

Regarding “MDLDLRKLRYFVAVADRLHFGRAADALHIAQPALSRQIRALEQDLGASLFTRDSHGVTLTDAGRQLLDDAGPLLASAHAVRRRVSVAERGGRRLVVGFRAGIPVIPATRVFEAQHPDVVVDVQRMEWDDQASMLLDGRVDVAYVRLPLAETGLRLAPLYTEPLMVALPAGHRLAGKDEVTEADLAGEPLIWHADASRQPTRRPHPDSGLRVRGVEEKLEHVAAGRGISFVGRSEAVFFSRPDISYVPVPDLAPDQVCVAMAASRTSPLADSFFAAAQTTAEITAECGNYEMWRLASDAASKRD”, the protein production entry was “failed”.

With “MDLESVKKYLEGDEDEKAKEPMVAKLPHRFLERFVTNGLKVDLIEPGRIVCSMKIPPHLLNAGKFLHGGATATLVDLIGSAVIYTAGASHSGVSVEINVSYLDAAFLDEEIEIESKALRVGKAVAVVSVELRKKTTGKIIAQGRHTKYFAPRSNL”, the protein production result was “failed”.

As to “MDLKEIVQAGAFDLHIHTTASDGEYSPTAIVKKAKEIGLRTIAITDHDTLDGIEEAVIAGKRHGINVIPAIELTTKYKGTNVDILGYNVKASEKLQAILVQLKKHREGRAMQIIEKFNDIGFTITLDEVKQFSEDGVIARPHIAKAIVKKGYVLDYQTVFDEYLADGKPCAIDKMILTPEEGIKLIHEAGGKAILAHPVYLEDTLVRELLALDFDGIEVWHRNHDETDQEKYKMLATEFALIKTGGSDFHTDEHSLGQFGWKADEE”, the protein production entry was “failed”.

“MDLLLFSDVHGDREACQRLVDRAADVDVVVGAGDFCVARRNLQAPIETLSAIDTPTVLVPGNAETEDELEAQIDAAGWGAAHVLHGGGTTIDGTPFFGLGGGVPVTPFGPWSYDLTEDEARTLLSDCPEGAVLVAHSPPKDAVDRDSKGQSLGSVAVREAIEAHTPRLTVCGHIHGSWEETAHVGPTPVHNAGPHGRIWTLSEADGA”: the protein production result is given as “failed”.

On to “MDLPITLSKETPFEGEEITVSARVTNRGAAEAHNVPVAVYLGNPAQGGVEIGRDTISRIPVGGTGLARVQWKATRKLAGRAANPGVPVYAVVDPDNRVAESDKANLEHHHHHH”, for which the protein production result is on record as “not failed”.

On to “MDLQGSVIKLQAAEAAGCKSPGRLLIIYLRPDAPRPQACASSVPAAMNRFKASKFRHMEARPSRREAWISDIRAGTTATCGNHIKSSCSLIAFNSDRPGVLGIISLEGHEENKRHVTYLGCHSDLVTDLDFSPFDDFLLASGSADRTIKLWRLSSTGEALPSVPGVVLGPEELPVDVLQFHPTADGVLVSTAGRTVKVWDVAKQQHLTELEAHKDLVQSAVWSRDGATVGTACKDKQLRIFDPRARAQASQSTQAHENNRDIRLAWTGIQEYLVSTGFNQMREREAKLWDTRVFSSALASITLDTSPGSLIPLLDPDSGLLVLAGKGENQLYCYEVTPQQPALSPVTQCILENALRGAALVPRQALAVMNCEVLQVLQLSDTAIIPISHRVPRKAVEFHEDLFPDTAGSVPASDAHTWWAGDNQQVQKVSLNPAHRPHPRFTSSLLPTLEPSPNMEQPAELPRADTELSEGFSSPSSLVSPSTPSSLGLSLSSTSGIGTSPSQRSLQSLLGPSSKFRHAEGTILHRDSHITNLKGLNLTTPGESDGFCANRLRVAVPLLSSGGQVAVLELQKPGRLPDTALPTLQNGAAVMDLVWDPFDPHRLAVAGEDARIRLWRVPPGGLKNVLTTPETVLTGHTEKIYSLRFHPLAADVLASSSYDLTIRIWDLQAGTEQLRLQGHQDQIFSLAWSPDGKQLATVCKDGRVRVYDPRSSPLPLQDGPGPEGGRGARIVWVCNGGCLLVSGFDSRSERQLQLYMADALAEGPSALLGLDVAPSTLLPSYDPDTGLVLLTGKGDTRVFLYEVIPEAPFFLECNSFTSPDPHKGFILLPKTECDIQDVEFARCLRLRQTSLEPVAFRLPRVRKEFFQDDVFPDTAVTWASALDAKAWFKGANGQPRLLSLQPPGMTPVSQAPREVPARRTPSSAQYLEEKSDQQKKEELLNAMVAKLGNREDPLPQDSFEGVDEDEWD”, for which the protein production result is “failed”.

Consider “MDLVAWETLSFPVVSAAFGASAFLIAVVGTRMTRAADRLADETGLGEAIFGAVLLGSTTSIAGITTSVTAAVDGLPSLAISNAIGGIAAQTVFLAVADMAYRPANLEHAAASVENLLQGALLSTLLAIPLLGMAGPRLDLFGIHPASVLLVAGYLYGIHLVAEARSTPYWVARQTDKTRQDTGAEGRESAALSTLWLEFVALSLVVGAAGYVIAKTGGQVAARTGLSEGLVGGLFTAVSTSLPELVTSVAAVRRGALTLAVGGIIGGNSFDVLFVAFSDVGYQEGSIYHAMTEQQVFIIALTLLLTGILLMGLLRRERRGAFGIGFESFLALVLYFGAFGLLFV”, for which the protein production entry is recorded as “failed”.
